Assay results as given in article PMC6202311, “Substrate Recognition and Autoinhibition in the Central Ribonuclease RNase E”.

Molecular target: RNase E NTD D303R D346R (Escherichia coli, UniProt P21513 1-529, D303R;D346R)
Test: crystal structure (3.0 A); Mg2+, Zn2+; BLI: 25 mM HEPES pH 7.0, 150 mM NaCl, 100 mM KCl, 10 mM CaCl2, 0.5 mM TCEP; RNA immobilised on streptavidin sensors, protein 0-500 nM; temperature not stated
Settings: protein: recombinant; tags: N-terminal His; chain copies: 4; hairpin, 3' single-stranded tail

GUUAUAUGCCUUCUUGGAGGUAUAUAACAAAGAC (structured_RNA, 5' monophosphate; 2'-O-methyl on A33 and C34 (ompD +82, +83)) [MicC-ompD fusion]
binding result: binds
